B1: TPR t1 (parent)
chain: GACCAAUCUGCCCUCAGAGCUCGAGAACAUCUUCGGAUGCAGAGGAGGCAGGCUUCGGUGGCGCGAUAGCGCCAACGUCCUCAACCUCCAAUGCAUCCCACCACAUGAUGAUGCCUGAAGAGCCUUGGUUUUUUG

Variants of: B1
Test: polymerase ribozyme fitness, log enrichment relative to wild type (log ratio); higher = more active; in vitro selection for triplet polymerase activity
In short: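 Fitness compares each genotype's enrichment to that of the wild type on a logarithmic scale, averaging replicates with inverse-variance weights. The logarithm is base 2. Enrichment came from Illumina sequencing of input and output libraries after one triplicate round of in vitro selection, which included frozen incubation at −7 °C, of PCR-built, transcribed mutant libraries of each subunit of a heterodimeric triplet polymerase ribozyme. Only genotypes with ≥10 input reads and ≥1 read per output were kept.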

| Variant | polymerase ribozyme fitness (log ratio) |
| --- | --- |
| A16C C20G U59G U106A G113A | -5.4 |
| A16G C22A G47U G48U C64U C123G | -6.67 |
| G17U C20A C49U | -5.73 |
| A18C U32C G120C | -0.763 |
| G17A A43G G127A | -4.18 |
| A16U G93A | -2.35 |
| A16C U32G G69A U109C G135A | -6.26 |
| A16G C76G G120A | -2.25 |
| A18U C72G | -2.48 |
| G17U A84U U96G G128U U130C | -3.54 |
| G17C C56U | -3.79 |
| A16C G47U A119U | -5.65 |
| A18C A91U | -1.86 |
| G17A A50U G51U C114G | -6.63 |
| A16U C40U U87G U92A | -5.02 |
| G17U A43G G57U | -4.19 |
| A16U C20A C56A | -5.28 |
| A16G G52A C56A G69U | -1.69 |
| G17C A29U U125G | -5.1 |
| A18C A29G G61A | -2.27 |
| A18C C79G A90U G113A | -4.1 |

| Variant | polymerase ribozyme fitness (log ratio) |
| --- | --- |
| A18G G127U | -4.06 |
| A18G G120C | -0.633 |
| A18G G120U | -2.46 |
| A18C G45A C53U | -4.6 |
| A18G U32A C76U C124G | -2.81 |
| A18U A41C C88U U92C C104U A111C U125G U132C | -4.68 |
| A18G C88U G113U | -2.52 |
| G17U A95G U131A | -2.77 |
| A16C C40G C56A | -3.75 |
| G17A G23U G61U C76U C114A | -5.73 |
| A16U G69U C98U A121C U130A | -0.111 |
| A16C G44U U125G | -4.42 |
| G17A U55A G77U C115U U125A | -0.205 |
| A16U U96A | -2.28 |
| A18U C104A | -4.32 |
| A16G U55A C102A A121U | -0.698 |
| A18U C76A C94U U112C | -1.22 |
| A18G G58A C79G A118G | -7.2 |
| G17C U54G C94A U112G | -6.12 |
| G17C A75G C101U | -5.29 |
| A16G A41C A84U C99A G117C U133C | -4.53 |

| Variant | polymerase ribozyme fitness (log ratio) |
| --- | --- |
| A16U C70G | -2.98 |
| A18C G45A C53U G113A | -3.09 |
| A16U A50C C56A A95C | -3.91 |
| G17A A41U A84C | -4.63 |
| A18G G60A C88U A90C | -4.63 |
| G17C C73U | -4.07 |
| G17A G48A U87G G117A | -2.48 |
| G17U A18C G57C | -2.66 |
| A18G G63A C115A C123U | -6.7 |
| C15U U78C A83C C97A C101A U109A | -5.99 |
| A18C G45A C49G G61A U133A | -4.6 |
| A16U A43U U112C | -1.59 |
| A18U C88U | -2.25 |
| A18C G135U | -3.23 |
| G17U A18C C53G | -3.98 |
| A16C A50G | -2.32 |
| G17U U21A C62G A75C C124U | -4.5 |
| G17U C53G U96C U126C | -4.06 |
| A18G A43U C101G G120A | -4.32 |
| A16U U78C | -2.22 |
| A18G G57U G69A C85U G120U | -7.29 |

| Variant | polymerase ribozyme fitness (log ratio) |
| --- | --- |
| G17A C49A G58A G110C | -6.79 |
| G17U C34A U112A G120C | -6.92 |
| G17U G48A A50U G60A | -3.1 |
| A16U G63U | -4.13 |
| G17A U109A G117A C124A | -5.22 |
| A18C G52C U96C | -3.84 |
| G17A G69U U81A U116A | -2.91 |
| A16U C56G | -2.56 |
| G17A G110A | -4.08 |
| C15U G52A C102G C124A | -5.21 |
| C15U G63A | -2.04 |
| G17U C20G G52A C73A G113A A119G | -1.98 |
| C15U G52A A91G | -2.95 |
| A16U G93U C123A U133C | -3.02 |
| A18U C62U C89A U133A | -2.36 |
| A18U A24C A27U C40U G63C C89G U116A A121G | -5.65 |
| A16G C49A C73U | -0.946 |
| G17A A18C C22U G35A A75U C79G A90G C99A C124G | -5.46 |
| G17C C80U A83U C115G | -2.85 |
| A18C U32C A46U A90U C114U | -3.04 |
